Assays:
[1] = molecular target: Ctla-4 with EGFP-tag (labeled protein of the MST assay) (zebrafish); assay: MST; Monolith NT.115; EGFP-tagged Cd28 or Ctla-4 as labeled protein, unlabeled Cd80/86 titrated (initial 3.2 µM, 16 doubling dilutions), 10 min at room temperature, measured at 25 °C, 40% LED, medium MST power
[2] = molecular target: Cd28 with EGFP-tag (labeled protein of the MST assay) (zebrafish); assay: as above
[3] = molecular target: HA-Ctla-4 (zebrafish cytotoxic T lymphocyte antigen-4, from pCDNA3.1-HA-Ctla-4) (zebrafish); assay: Western blot under non-reducing and reducing conditions; lysate of HEK293T cells transfected with pCDNA3.1-HA-Ctla-4 for 48 hr, mixed with loading buffer without or with β-ME; empty plasmid as control

| Kd [1] [µM] | Kd [2] [µM] | Substance | stoichiometry N [3] |
| --- | --- | --- | --- |
| 0.5 | 2.64 | recombinant soluble Cd80/86 (Cd80/86 extracellular domain) (domain or fragment) |  |
|  |  | HA-Ctla-4 (zebrafish cytotoxic T lymphocyte antigen-4, from pCDNA3.1-HA-Ctla-4) (receptor) | 2 |

— PMC12092003
